Test results: the DeepSol protein solubility set

assay: soluble on expression in E. coli; label from the status in PepcDB or PDB records

Row | Sequence | soluble on expression in E. coli
1 | KNTDLVAEDSICFPIDEHTYYASKSIFQFEENGHEYLSFLDAEYSQKINIYDIKNQKLIKTILLQKEGPNGMNVLSGCHPLNLNHFIITSWNGTFSLVNDKGEIEKKFDFWEKGVNFQEFDHISFSSYSYKPAIIKDSILYFSQSFLKHPRKKSDWNKIPMFAFANLNTGKTGWSELRYPLIFNKDEDFKNVKLYDPEICYTYTGKDVVISLGQYDSIMVSSDFKHKISYNAKSRYLAHAYPHLQDGQIDLFKNIQIQGKLPHYSHLMYDKYRKVFYRFALMPDDNIKPFSNNPHQSFSIIILNKDYEIIGETKFPGNTYTHHLCFVGKKGLYISENNENNPQFDENKLVFRCFTLQDRKK | soluble
2 | MKTTTYNTDWAAEKTKIRSFFDEYYVDNEDGSGKAFPYRDQVFEIARRDKQAIVVNVDHIKESDIPDALELSEAITSNTKRYEVLFKDTISDMIQDYLGDKQAPVIDALDAYMFQRLHMDRNEGAANEEVSLQDKRKKYPPQLLQRFEVYFTTDDAAHETCVRNIKATEIGHLVSMKGVVIRATEVKPCVEVMTYTCDTCAAEVYQPVKGMQFTPPVNCPNKECVEAKANGRLHMQLRGSKFVKFQELKIQELSEQVPVGSIPRTMTVHVYGEMTRKCNTGNVVHVSGVFLPIMQSGFRPTGGLVADTYLEAHYINNLDDNPTFNGVQSAELEVLRRKGDNYETLAASIAPEIFGHVDVKKCLLMALVGGNDNSSNGMKIRGCINVLMMGDPGVAKSQLLGYVNRLAPRSQYTTGRGSSGVGLTAAVMKDPVTGEMSLEGGALVLADGGICCIDEFDKMMDHDRTAIHEVMEQQTISIAKAGIMTTLNARTAIIAAANPAYGRYNPNRSIEQNVDLPAALLSRFDLILLMQDKADRENDKILAEHITYVHQHGCHPNREKKDLISLETLREYISLCKTYTPTVDPALRERIVEAYVEMRRDARYSSDPTFVSPRMILGIVRMATARAKLRLSTIVDESDVEEALRLMQFAKDSLRPEQNKIEKRMAPVDAAFAVLRELYHADNAPIAISNAIQRCARKGISEVALKKCLDQYTANGLLVMDRQNIVFAMN | not soluble
3 | AIAAHVRTYNPRVRVGNWKEDVTLEEETSKEFILQKDRGELTVQKEGALKQSILKPVSLSVSQDGFLHFGDTVMLVNCGDGGHMQRSPCVLSIIADSSNVTSHSQTNTGPHLLGPLQVGGAHSMDPCVRNTFIIISVDGSSDGEVVRYDQSFALKTTGGFAGELFLASDHKSFQKCAKKSRLQELSLVEEFDFLCWWKVLYFDPQDRLENEGYPVQVNNKVLISHCKTNQCLAALSNHILWSQFGKEYELTAHTFLDSHKAEQDNNHWLFSTAHPANQSQSLLQLQQEEHKENQEDTQVKDCS | soluble
4 | AEKRNIFLVGPMGAGKSTIGRQLAQQLNMEFYDSDQEIEKRTGADVGWVFDLEGEEGFRDREEKVINELTEKQGIVLATGGGSVKSRETRNRLSARGVVVYLETTIEKQLARTQRDKKRPLLHVETPPREVLEALANERNPLYEEIADVTIRTDDQSAKVVANQIIHMLESN | soluble
5 | MGSDKIHHHHHHIWCTPTRLARPDRRGKAIRTIGMADGTIPMNAKPTEEISVREVFGIDTPMLVKGFAERSDRVPEIDQTYKFDPDTTLAILAGFSHNRRVMVQGYHGTGKSTHIEQVAARLNWPCVRVNLDSHISRIDLIGKDAIKLRDGKQVTEFHEGILPWALRNPVAIVFDEYDAGRADVMFVIQRVLEHDGKLTLLDQNEIITPNPCFRLFATANTVGLGDTTGLYHGTQQINQAQMDRWSLVATLNYLSHDAETMIVLSKAPHYNTEKGRKQVSQMVTVADLTRTAFMNGDLSTVMSPRTVINWAQNAEIFRDVGYAFRLTFLNKCDELERQTVAEFYQRCFDEELPESAASTSLG | not soluble
6 | GKDWNWNVGGVLGYNKNKVTYVNVKAPAIFLQFDYPAAYPRVGVPYNAIYGYLWAGLDSKGQPQVYDSEGNIHVSSSPQKVEDAVYLGTSVPVYSGAINTNLRYKNWELAAQLLFEGGHKMRNTNIAYPGLGVTSKDVSKRWRQPGDEAYTDVPRYVPSESKDYNSYSSDLYSKASIHVLDADNWRLKNLSVTYHVPASVCQKFYVKNARIMLGMENVFTLAKSRDVKWMLGGYSKPNYLCNVNLNF | not soluble
7 | GTTVHCDYLNRPHKSIHRRRTDPMVTLSSILESIINDMRDLPNTYPFHTPVNAKVVKDYYKIITRPMDLQTLRENVRKRLYPSREEFREHLELIVKNSATYNGPKHSLTQISQSMLDLCDEKLKEKEDKLARLEKAINPLLDDDDQVAFSFILDNIVTQKMMAVPDSWPFHHPVNKKFVPDYYKVIVNPMDLETIRKNISKHKYQSRESFLDDVNLILANSVKYNGPESQYTKTAQEIVNVCYQTLTEYDEHLTQLEKDICTAKEAALEEAELESLDPMT | soluble
8 | MAHHHHHHMHNSVPASNTCSPFREETVSKRGKRSRGTGGDDKITRGTCSQPFSVITLPPGKLLEWLVCSPCRVYDVNLPRSRNNDNNISSLQCAVLPNFFVEYGGRSYSCVAKVCKPQLRKVLLRALAAVRQEMGSVDDIPHDSLLVVAVSPINAFSSECIHDASRTAMPRAREGCKIVGLCVARELSAPHRMHCESNWSHEKSEASGVGAAVQEGLGDCWEEDATRVGGTNNVRKAFCGVQLVWVADCYRRHGVAKVLVDTARRHISYGFEVPVERVAFSEPTSLGKLFAKSYSGRPDFLIF | not soluble
9 | MVEIDPFEMAVKQLERAAQYMDISEEALEWLKKPMRIVEVSVPIEMDDGSVKVFTGFRVQHNWARGPTKGGIRWHPAETLSTVKALATWMTWKVAVVDLPYGGGKGGIIVNPKELSEREQERLARAYIRAVYDVIGPWTDIPAPDVYTNPKIMGWMMDEYETIMRRKGPAFGVITGKPLSIGGSLGRGTATAQGAIFTIREAAKALGIDLKGKKIAVQGYGNAGYYTAKLAKEQLGMTVVAVSDSRGGIYNPDGLDPDEVLKWKREHGSVKDFPGATNITNEELLELEVDVLAPAAIEEVITEKNADNIKAKIVAEVANGPVTPEADDILREKGILQIPDFLCNAGGVTVSYFEWVQNINGYYWTEEEVREKLDKKMTKAFWEVYNTHKDKNIHMRDAAYVVAVSRVYQAMKDRGWVKK | soluble
10 | MSRGLLEACIEFIRETPAGDALRIVAYEFTFKRILLELKAALERGVDVRIVYHATTANEKAIADAKLPENSKGVQILFKRTRPQTPHNKFIVRLKKGKTPVSVWTGSTNFTPSGFLGQTNVGHKVTDGDIAKIYLQLWEGLKADPDDFDATQLEHHHHHH | not soluble
11 | MGSDKIHHHHHHMYAQTPQDMTRALFEAQLVELQRARAIRKKYHTDVVLGLTSAIRVLLIDMPSLYDKIKLLDYLHIVVEEPRFRSSHEGVKFHAYTATLPPDRTPDRTLQRDRTSRQTAATPETPHTQTARSHKKVTRDTTPFAAYENSKYAPIFVEPHIFTVHPLLLWVQMAAYLRLEELVVLGDAMMRRSFYRVHVSPADFATLLNELPTTFPHRKKCDKAVKLLAENTDSCMETRLRFRMLRAGYGPFVINYRLPLNTADKKQAFLDIAIPNLKIAIEYSGKFHAQNWESDEARRTALSSAGWQILSVNAETLSNSGKFKDFLIQLSMTIARQQTILQRNQQM | not soluble
12 | MKKSPKISLILEAFQNLEKAYVDLKKNLEIPKEEFVKNKLVQDRVRIDFNLAFESTMRVCRHLSAVYGVKTSSRDCLPKIAEHIGLPFADRLKKFSEFYFRYRDLKDTVSPEELYDFLKENLVLFKEFARGVVEYIKKTTGNYLLIDFDLLNEKAKFIKDSVKKIDFVLSQGEEEFKKTPMYYDRVKYFYQVAYDSLFDICKHLAPKFGIKKFGDDCLTKMVEKGVIPPEYYETVLKMTLLKNKLISTWEVSPEELYRSLKELNDKFIPVLREISKSLKLLLEKKAKEVGKEA | not soluble
13 | TFKHSRDILGRTFDILVIDLSYDYSPNDLGRIIETVRGGGLIFVLTNPFEKWKDMWTGFHKSLVTPPYTIEDVKKRFNRRLIRKFTEHKGIYIVNTDRMSIERKPG | not soluble
14 | MEDLDFPICILKMNLQCCEDFPSRVKKLLRQVKGVYAITIDPVKGLILVCGTAEPSVLIKAVAKLGQSPQLYAYEKDPATAKTRFRTLLKRYATNKTQDKPSPPAPPVTATTPVETCPAGGETFRGFGYPGPTTMMQMPAFSLPPPRGLPGWLAPPTNPRLKYEEPKVTPRKPPAPYPFDYYENLGFPPSDSLFNYFSDDNPQPCSIM | soluble
15 | GPGSMDSSAGALPATAHSSSNGAASIENVFAGLAWVRDLTDASLAAERVHNAFMQVVFSFVPEYDQDDDDDSATHRFVTAAERQKEAERDRRLREEARRELENLRNEPLSDAGDSGQRSDDEEDQRSEEANLADFETNEFMHWIEAGASDRFAAPRHEIDEKGLRDDPRVQVGADGAWQDYGVRSECNMSGATQGGARGAASAPRW | soluble
16 | MPLYVIDKPITLHILTQLRDKYTDQINFRKNLVRLGRILGYEISNTLDYEIVEVETPLGVKTKGVDITDLNNIVIINILRAAVPLVEGLLKAFPKARQGVIGASRVEVDGKEVPKDMDVYIYYKKIPDIRAKVDNVIIADPMIATASTMLKVLEEVVKANPKRIYIVSIISSEYGVNKILSKYPFIYLFTVAIDPELNNKGYILPGLGDAGDRAFG | soluble
17 | MTEVYDLEITTNATDFPMEKKYPAGMSLNDLKKKLELVVGTTVDSMRIQLFDGDDQLKGELTDGAKSLKDLGVRDGYRIHAVDVTGGNEDFKDESMVEKYEMSDDTYGKRTDSVRAWKKKMQEEQGSAAPMENESDKLNEEAAKNIMVGNRCEVTVGAQMARRGEVAYVGATKFKEGVWVGVKYDEPVGKNDGSVAGVRYFDCDPKYGGFVRPVDVKVGDFPELSIDEI | soluble
18 | MKTLNRRDFPGAQYPERIIQFGEGNFLRAFVDWQIDLLNEHTDLNSGVVVVRPIETSFPPSLSTQDGLYTTIIRGLNEKGEAVSDARLIRSVNREISVYSEYDEFLKLAHNPEMRFVFSNTTEAGISYHAGDKFDDAPAVSYPAKLTRLLFERFSHFNGALDKGWIIIPCELIDYNGDALRELVLRYAQEWALPEAFIQWLDQANSFCSTLVDRIVTGYPRDEVAKLEEELGYHDGFLDTAEHFYLFVIQGPKSLATELRLDKYPLNVLIVDDIKPYKERKVAILNGAHTALVPVAFQAGLDTVGEAMNDAEICAFVEKAIYEEIIPVLDLPRDELESFASAVTGRFRNPYIKHQLLSIALNGMTKFRTRILPQLLAGQKANGTLPARLTFALAALIAFYRGERNGETYPVQDDAHWLERYQQLWSQHRDRVIGTQELVAIVLAEKDHWEQDLTQVPGLVEQVANDLDAILEKGMREAVRPLC | not soluble
19 | MPSTDFADIPAAKKMKIDTCVLRFAKLTENALEPVRGSAKAAGVDLRSAYDVVVPARGKAIVKTDLQVQVPEGSYGRVAPRSGLAVKNFIDVGAGVVDEDYRGNLGVVLFNHSDVDFEVKHGDRIAQFICERIFYPQLVMVDKLEDTERGEAGFGSTGVK | soluble
20 | MQRYKLPVSVLVVIYTADLQVLLLERADHPGYWQSVTGSQDPGETLLQTAVREVREETGLNTDDYVLSDWQIQNRYEIFEEWNWRYPPGTTHNTEHVFGLELPKTIPAVVSSREHLGYVWLPWREAAEKVFSSSNACAIRMLASKRKSENSR | not soluble
